Assay results as given in US20220064286A1 (Genentech, published 2022).
Where two headings read alike, the source gives them in different places.

Key:
[1] = molecular target: T1, cynomolgus TIGIT on CHO cells (cynomolgus monkey, UniProt A0A7N9I9V4 89-312); test: FACS blocking assay: labelled PVR-Fc (blocked ligand) on CHO cells expressing cyno TIGIT
T1 construct: whole, on cells; also called CHO-cyTIGIT; cyTIGIT
Procedure: (§1) These studies were further validated in CHO-TIGIT PVR blocking experiments in which TIGIT-expressing CHO cells were incubated with labeled PVR-Fc fusion protein in the presence of anti-TIGIT antibody or an human IgG1 control (FIG. 4A).

[2] = molecular target: T2, cynomolgus monkey (cyno) TIGIT protein (cynomolgus monkey, UniProt A0A7N9I9V4 89-209); test: SPR, captured mAb
[3] = molecular target: T3, human TIGIT protein (human, UniProt Q495A1 22-141, limits assumed); test: SPR, captured mAb
T3 construct: Recombinant protein (Genentech) used in ELISA screening and as SPR analyte; also called TIGIT antigen
T3 sequence: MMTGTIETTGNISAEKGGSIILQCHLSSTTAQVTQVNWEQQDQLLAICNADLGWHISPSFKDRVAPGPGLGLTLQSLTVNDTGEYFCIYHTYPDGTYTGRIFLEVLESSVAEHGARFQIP

[4] = molecular target: T4, full-length human TIGIT on CHO cells (human, UniProt Q495A1 22-244); test: FACS on CHO cells expressing human TIGIT, FITC anti-hIgG detection
T4 construct: also called CHO-hTIGIT; hu TIGIT
T4 sequence: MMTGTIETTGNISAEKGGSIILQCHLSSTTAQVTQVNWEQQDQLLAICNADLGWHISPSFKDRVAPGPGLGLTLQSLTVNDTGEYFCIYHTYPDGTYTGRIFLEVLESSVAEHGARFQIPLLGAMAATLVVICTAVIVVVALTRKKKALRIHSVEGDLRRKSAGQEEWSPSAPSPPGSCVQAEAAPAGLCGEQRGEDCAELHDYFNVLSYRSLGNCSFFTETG
Procedure: (§2) Additional in vitro binding studies of the OMT- and SD-derived anti-TIGIT antibody clones were conducted. The OMT- and SD-derived anti-TIGIT clones were tested for binding to human and cyno TIGIT expressed on the surface of CHO cells by FACS analysis. CHO cells were transfected with full-length human TIGIT (CHO-hTIGIT) or cynomologous TIGIT (CHO-cyTIGIT). The TIGIT-expressing CHO cells were incubated with each anti-TIGIT antibody at the indicated concentrations and then detected via a FITC-labeled anti-hIgG antibody (see FIG. 1A) using standard methods. The results, shown in Table 6 and FIGS. 1B-1E, corroborate the results from the BIACORE™ analysis, described above.

[5] = molecular target: T1, cynomolgus TIGIT on CHO cells; test: FACS on CHO cells expressing cyno TIGIT, FITC anti-hIgG detection
Procedure: as §2

[6] = molecular target: T2, cynomolgus monkey (cyno) TIGIT protein; test: SPR, bivalent affinity
[7] = molecular target: T3, human TIGIT protein; test: SPR, bivalent affinity
[8] = molecular target: T2, cynomolgus monkey (cyno) TIGIT protein; test: SPR, monovalent affinity
[9] = molecular target: T3, human TIGIT protein; test: SPR, monovalent affinity
[10] = molecular target: T4, full-length human TIGIT on CHO cells; test: FACS blocking assay: labelled PVR-Fc (blocked ligand) on CHO cells expressing human TIGIT
Procedure: as §1

[11] = molecular target: T5, human TIGIT on activated human primary T cells (human, UniProt Q495A1 22-244); test: FACS on activated human PBMC, CD4 T cells, FITC anti-hIgG detection
T5 construct: also called Human T cell
T5 sequence: T4 sequence
Procedure: The OMT- and SD-derived anti-TIGIT clones were also tested for binding to human primary T cells by FACS analysis. Human PBMC were activated for with plate-bound anti-CD3 (5 μg/ml) and soluble anti-CD28 (2 μg/ml) for 2 days as described in Yu et al. Nature Immunology. 10: 48-57, 2009, which is incorporated herein by reference in its entirety. Cells were then washed and incubated with incubated with each anti-TIGIT antibody at the indicated concentrations and then detected via a FITC-labeled anti-hIgG antibody. Cells were also stained with anti-CD4, anti-CD8, and anti-CD25 (BD bioscience). Human CD4+(CD25+CD4+) and human CD8+(CD25+CD8+) T cells were assessed for binding by the anti-TIGIT clones by FACS. All samples were acquired on LSR-II or LSR-Fortessa instruments (BD Biosciences) and analyzed using FlowJo software (Treestar).

[12] = molecular target: T2, cynomolgus monkey (cyno) TIGIT protein; test: SPR, captured mAb; remark: listed apart in the source
Excerpt: (§3) To prevent unwanted pyroglutamate formation for clones 4.1A4, 4.1 D3, and 7.4A3 (also referred to as 1A4, 1 D3, and 4A3, respectively) and to resolve the issue of unpaired cysteine residues for clones 4.1A4 and 7.4A3, the following optimized anti-TIGIT antibody variants were generated: 4.1A4.C96S.Q1E, 4.1A4.C96Y.Q1E, 4.1 D3.Q1E, 7.4A3.C96S.Q1E, and 7.4A3.C96Y.Q1E (also referred to as 1A4.C96S.Q1E, 1A4.C96Y.Q1E, 1 D3.Q1E, 4A3.C96S.Q1E, and 4A3.C96Y.Q1E, respectively). As described below in Table 2, the affinities of these five optimized variants for human and cynomolgus monkey (cyno) TIGIT were then determined by Surface Plasmon Resonance (SRP) (BIACORE™ analysis) and compared to that of their respective parental clones.
(§4) Briefly, a series S CM5 biosensor chip was activated with N-ethyl-N′-(3-dimethylaminopropyl)-carbodiimide hydrochloride (EDC) and N-hydroxysuccinimide (NHS) reagents according to the supplier's (GE Healthcare Biosciences, Piscataway, N.J.) instructions, and a human antibody capture kit was applied to couple goat anti-human Fc IgGs in order to achieve approximately 10,000 response units (RU) on each flow cell, followed by blocking un-reacted groups with 1M ethanolamine.
(§5) (flow rate: 30 μl/min) with no regeneration between injections. The sensorgrams were recorded and evaluated by BIAcore™ T200 Evaluation Software (version 2.0) after subtraction of reference cell signal. Association rates (kₒₙ) and dissociation rates (koff) were calculated using a simple one-to-one Langmuir binding model. The equilibrium dissociation constant (KD) was calculated as the ratio koff/kₒₙ.

[13] = molecular target: T3, human TIGIT protein; test: SPR, captured mAb; remark: listed apart in the source
Excerpt: as §3, §4, §5

[14] = molecular target: T6, human TIGIT-AviFlag-biotin (human, UniProt Q495A1 22-141, biotin); test: Block ELISA Human PVR-Fc:Bio-TIGIT-AviFlag (blocked ligand human PVR-Fc)
T6 sequence: T3 sequence
Procedure: (§6) To test for the ability of the clones to block the TIGIT-PVR interaction, a blocking ELISA assay was used. Briefly, recombinant human PVR-Fc fusion protein, cynomolgus monkey PVR-Fc fusion protein, or mouse PVR-Fc fusion protein was coated at 4 μg/ml at 25 μl/well in phosphate-buffered saline (PBS, pH 7.0) onto 384-well Maxisorp microtiter plates (NUNC, Denmark) and incubated overnight at 4° C. The coating solution was then discarded and the plate was blocked using 0.5% bovine serum albumin (BSA) in PBS at 80 μl/well and incubated with gentle agitation for 1 hour. Titration curves of anti-TIGIT and Fab isotype control antibodies were diluted in assay buffer (PBS, 0.5% BSA, 0.05% Tween 20) using 12 serial 2.5-fold dilutions (40000-1.7 ng/mL). […] The plate was then washed 6× with wash buffer and bound human TIGIT-AviFlag-biotin, cyno TIGIT-AviFlag-biotin, or mouse TIGIT-His was detected by adding 25 μl/well of horseradish peroxidase-conjugated streptavidin (1:10000, Amersham, UK) or horseradish peroxidase-conjugated mouse anti-His (1:2500, Qiagen, Germany) diluted in assay buffer. […] Absorbance was read at 450 nm on a […] ASCENT® microtiter plate reader (Thermo Labsystems, Helsinki, Finland). Fit curves were plotted from the resulting optical density values from the ELISA plates and IC50s were calculated using Genedata Screener software (Genedata, Switzerland).

[15] = molecular target: T7, cynomolgus TIGIT-AviFlag-biotin (cynomolgus monkey, UniProt A0A7N9I9V4 89-209, biotin); test: Block ELISA Cyno PVR-Fc:Bio-TIGIT-AviFlag (blocked ligand cyno PVR-Fc)
T7 construct: also called cyno TIGIT-AviFlag-biotin
Procedure: as §6

[16] = molecular target: T8, mouse TIGIT-His (mouse, UniProt P86176 29-148, limits assumed); test: Block ELISA Mouse PVR-Fc:TIGIT-His (blocked ligand mouse PVR-Fc)
T8 sequence (looked up): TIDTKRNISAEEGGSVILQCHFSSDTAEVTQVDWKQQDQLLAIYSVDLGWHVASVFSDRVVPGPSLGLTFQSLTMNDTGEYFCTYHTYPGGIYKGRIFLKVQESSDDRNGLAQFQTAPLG
Procedure: as §6

T1 sequence (A0A7N9I9V4 entry or part of it): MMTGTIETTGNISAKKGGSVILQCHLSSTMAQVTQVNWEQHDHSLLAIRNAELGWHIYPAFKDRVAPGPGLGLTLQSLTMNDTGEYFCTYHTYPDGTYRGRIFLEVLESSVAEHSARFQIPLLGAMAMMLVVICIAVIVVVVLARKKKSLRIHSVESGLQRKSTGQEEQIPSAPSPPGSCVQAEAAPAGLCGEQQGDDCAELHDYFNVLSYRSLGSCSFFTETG
T2 sequence (A0A7N9I9V4 entry or part of it): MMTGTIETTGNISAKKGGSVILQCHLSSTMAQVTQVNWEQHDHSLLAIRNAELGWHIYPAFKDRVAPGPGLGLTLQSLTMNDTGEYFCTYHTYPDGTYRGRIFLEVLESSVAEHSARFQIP

B1: rat15C8 (antibody, V domains shown)
VH: EVQLQQSGPELQRPGASVKLSCKASGYTFTEHSIYWLKQRPKQSLEIIGRIDPKNGRTYFVDKFKNRATLTTNTSSNTAYMQLSSLTSEDTAIYFCARIDGFYFDFWGQGVMVTASS
VL: NIHLTQSPSLLSASVGDRVTLSCKGSQNVNKYLVWYQQKLGEAPKLLIYSTDNLQSGIPSRFSGSGSGTDYTLTISSLQPEDAATYFCYQYNNGFTFGSGTKLEIK
notes: SD rat-derived; rat V domains as FR/HVR pieces; also called 1.15C8; Chimeric 1.15C8
What does the source list for B1?
IC50 (read off the curve) [1]: ~0.3 nM; Kd [2]: 0.25 nM; koff [2]: 9.6e-05 s⁻¹; kon [2]: 381000 M⁻¹ s⁻¹; Kd [3]: 0.03 nM; koff [3]: 1.8e-05 s⁻¹; kon [3]: 522000 M⁻¹ s⁻¹; EC50 (read off the curve) [4]: ~0.3 nM; EC50 (read off the curve) [5]: ~0.4 nM; Kd [6]: ≤ 0.013 nM; Kd [7]: ≤ 0.007 nM; Kd [8]: 0.25 nM; Kd [9]: 0.034 nM; IC50 (read off the curve) [10]: ~0.4 nM

B2: 4.1A4 (antibody, V domains shown)
VH: QVQLVQSGSELKKPGASVKVSCKASGYTLTNYPMNWVRQAPGRGLEWMGWINTNTGSPAYAQDFTERFVFSLDTSVTTAYLQISSLKAEDTAVYYCARTAITSVYHFDYWGQGTLVTVSS
VL: DIQLTQSPSFLSASVGDRVTITCRASQGISSYLAWYQQKPGKAPRVLIYGATTLQSGVPSRFSGSESGTEFTLTISSLQPEDLATYYCQKLNSHPCSFGQGTKVEIK
notes: OMT rat-derived human antibody; also called 4.1A4.Q1.C96
With B2 as the binder, how does the “EC50 (read off the curve)” value [4] read?
Its value is roughly 1 nM.

And the “EC50 (read off the curve)” value [11]?
The value was roughly 0.5 nM.

And the “EC50 (read off the curve)” value [5]?
Its value is roughly 0.8 nM.

And the Kd [6]?
Its Kd is 0.035 nM.

And the Kd [7]?
The Kd was 0.31 nM.

And the Kd [12]?
The Kd was 2.42 nM.

And the koff [12]?
Its koff is 0.000643 s⁻¹.

And the kon [12]?
Its kon is 266000 M⁻¹ s⁻¹.

What about the Kd [13] of the same binder?
The Kd was 3.57 nM.

And the koff [13]?
Its koff is 0.00122 s⁻¹.

What about the kon [13] of the same binder?
Its kon is 342000 M⁻¹ s⁻¹.

And the Kd [8]?
Its Kd is 2.6 nM.

What about the Kd [9] of the same binder?
Its Kd is 4.9 nM.

And the “IC50 (read off the curve)” value [10]?
Its value is roughly 0.2 nM.

B3: rat10A5 (antibody, V domains shown)
VH: QVSLKESGPGILQPSHTLSLTCSFSGFSLTTYGMGVSWIRQPSEKGLEWLASIWWNGNTYYNPSLRSRLTVSKDTSNDQAFLNVTSVDTTDTATYYCAHTGGAVITWFAYWGQGTLVTVSS
VL: NIVMTQSPKSMSISIGDRVTMNCKASQSVGKNIAWYQQKTGQSPQLLIYYASNRYTGVPDRFTGGGSGTDFTLTINSVQAEDAAFFYCQHIYNSPYPFGTGTKLEIK
notes: SD rat-derived; rat V domains as FR/HVR pieces; also called 1.10A5; Chimeric 1.10A5
With B3 as the binder, how does the “IC50 (read off the curve)” value [1] read?
Its value is roughly 0.09 nM.

And the Kd [2]?
The Kd was 0.41 nM.

What about the koff [2] of the same binder?
Its koff is 0.000281 s⁻¹.

And the kon [2]?
The kon was 678000 M⁻¹ s⁻¹.

What about the Kd [3] of the same binder?
The Kd was 0.09 nM.

And the koff [3]?
The koff was 8.4e-05 s⁻¹.

What about the kon [3] of the same binder?
The kon was 905000 M⁻¹ s⁻¹.

What about the “EC50 (read off the curve)” value [4] of the same binder?
Its value is roughly 0.2 nM.

And the “EC50 (read off the curve)” value [11]?
Its value is roughly 0.09 nM.

And the “EC50 (read off the curve)” value [5]?
Its value is roughly 0.2 nM.

What about the Kd [6] of the same binder?
Its Kd is 0.013 nM.

What about the Kd [7] of the same binder?
Its Kd is no more than 0.003 nM.

And the Kd [8]?
The Kd was 0.41 nM.

What about the Kd [9] of the same binder?
Its Kd is 0.093 nM.

B4: 4.1D3.Q1E Fab (Fab, V domains shown)
VH: EVQLQQSGPGLVKPSQTLSLTCAISGDSVSSNSAAWNWIRQSPSRGLEWLGKTYYRFKWYSDYAVSVKGRITINPDTSKNQFSLQLNSVTPEDTAVFYCTRESTTYDLLAGPFDYWGQGTLVTVSS
VL: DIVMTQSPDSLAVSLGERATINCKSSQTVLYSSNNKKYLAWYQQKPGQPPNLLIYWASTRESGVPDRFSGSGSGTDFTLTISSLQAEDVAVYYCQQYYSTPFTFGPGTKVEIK
notes: also called 4.1 D3.Q1E in Fab format
What does the source list for B4?
IC50 [14]: 6.9 nM; IC50 [15]: 1.5 nM; IC50 [16]: > 133 nM
